This note sets out measurements from patent JP2018108089A (dated 2018).

For experiment [1], the target named is T1, human tissue factor pathway inhibitor (TFPI) (human, UniProt P10646 29-304, limits assumed).
T1 construct: Bought protein; also called human TFPI; hTFPI
T1 sequence (looked up): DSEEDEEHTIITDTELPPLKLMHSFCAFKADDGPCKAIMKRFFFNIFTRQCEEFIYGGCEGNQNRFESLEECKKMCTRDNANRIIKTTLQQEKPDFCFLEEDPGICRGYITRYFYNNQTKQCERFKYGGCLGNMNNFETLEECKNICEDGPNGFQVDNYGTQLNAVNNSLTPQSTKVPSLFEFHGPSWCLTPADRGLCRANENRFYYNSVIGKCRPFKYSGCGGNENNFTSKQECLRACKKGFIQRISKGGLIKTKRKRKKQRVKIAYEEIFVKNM
In words: ELISA, Fab from bacterial lysate on coated human TFPI.

Experiment [2] addresses T1, human tissue factor pathway inhibitor …. Description: ELISA on coated human TFPI. (ELISA stands for enzyme-linked immunosorbent assay.)
Experiment [3] has as its target T2, mouse tissue factor pathway inhibitor (TFPI) (mouse, UniProt O54819 29-289, limits assumed).
T2 construct: Bought protein; also called mouse TFPI; mTFPI
T2 sequence (looked up): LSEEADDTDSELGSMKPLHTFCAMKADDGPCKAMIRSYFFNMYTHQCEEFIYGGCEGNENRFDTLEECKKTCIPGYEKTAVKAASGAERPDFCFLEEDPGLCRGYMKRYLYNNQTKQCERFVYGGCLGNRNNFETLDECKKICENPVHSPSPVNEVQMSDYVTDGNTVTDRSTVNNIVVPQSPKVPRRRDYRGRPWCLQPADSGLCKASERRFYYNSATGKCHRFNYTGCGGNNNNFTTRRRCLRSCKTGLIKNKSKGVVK
In words: ELISA on coated mouse TFPI.

The target of experiment [4] is T1, human tissue factor pathway inhibitor …. In words: ELISA on coated human TFPI, IgG against Fab.
The target of experiment [5] is T2, mouse tissue factor pathway inhibitor …. In words: ELISA on coated mouse TFPI, IgG against Fab.

B1: TP-4B7 (Fab, V domains shown)
VH: QVQLQQSGPGLVKPSQTLSLTCAISGDSVSSNSAAWSWIRQSPGRGLEWLGIIYKRSKWYNDYAVSVKSRITINPDTSKNQFSLQLNSVTPEDTAVYYCARWHSDKHWGFDYWGQGTLVTVSS
VL: DIVMTQSPLSLPVTPGEPASISCRSSQSLVFSDGNTYLNWYLQKPGQSPQLLIYKGSNRASGVPDRFSGSGSGTDFTLKISRVEAEDVGVYYCQQYDSYPLTFGQGTKVEIKR
notes: Human Fab (HuCAL Gold, E. coli TG1)
As to B1, the binding result in experiment [1] is recorded as “binds”.

B2: TP-2A8 (Fab, V domains shown)
VH: QVQLVESGGGLVQPGGSLRLSCAASGFTFRSYGMSWVRQAPGKGLEWVSSIRGSSSSTYYADSVKGRFTISRDNSKNTLYLQMNSLRAEDTAVYYCARKYRYWFDYWGQGTLVTVSS
VL: DIELTQPPSVSVAPGQTARISCSGDNLRNYYAHWYQQKPGQAPVVVIYYDNNRPSGIPERFSGSNSGNTATLTISGTQAEDEADYYCQSWDDGVPVFGGGTKLTVLG
notes: Human Fab (HuCAL Gold, E. coli TG1); also called Fab-2A8; TP-2A8-Fab
On to B2, for which, in experiment [1], the binding result is “binds”.

B3: TP-2G6 (Fab, V domains shown)
VH: QVQLQQSGPGLVKPSQTLSLTCAISGDSVSSSSAAWSWIRQSPGRGLEWLGIIYYRSKWYNDYAVSVKSRITINPDTSKNQFSLQLNSVTPEDTAVYYCARHSMVGFDVWGQGTLVTVSS
VL: DIVLTQSPATLSLSPGERATLSCRASQYVTSSYLAWYQQKPGQAPRLLIYGSSRATGVPARFSGSGSGTDFTLTISSLEPEDFATYYCQQYSSSPITFGQGTKVEIKR
notes: Human Fab (HuCAL Gold, E. coli TG1); also called 2G6-Fab
Consider B3, for which the EC50 in experiment [2] was 0.48 nM; in experiment [3], 5.18 nM.

B4: 2G6-IgG (antibody, V domains shown)
VH: B3 VH
VL: B3 VL
notes: Chimeric IgG: variable regions of TP-2G6 on mouse IgG1 constant regions, expressed in HKB11 cells; also called IgG-2G6; TP-2G6 after conversion to IgG
As to B4, the EC50 in experiment [2] is 0.22 nM; in experiment [3], 0.51 nM. The “fold improvement of EC50 against 2G6-Fab” value in experiment [4] came out at 2 fold; in experiment [5] it was 10 fold.

One may read the EC50 as the concentration at which the effect is half-maximal. A higher EC50 goes with a need for much substance.
